Experimental data as given in patent US20140314744A1 (NEOTOPE BIOSCIENCES, published 2014).
Each block holds one binder with its values, some of them ahead of it.

Tests used:
[1] = biological target: T1, Murine MCAM domain 1 (Ig1) with human IgG Fc tag (mouse, UniProt Q8R2Y2 24-131, limits assumed); test: ForteBio Octet Red, domains on anti-human IgG Fc biosensors
T1 construct: domain: domain 1 (Ig1); also called MCAM Fc domain 1; not shown: human IgG Fc tag
T1 sequence (looked up): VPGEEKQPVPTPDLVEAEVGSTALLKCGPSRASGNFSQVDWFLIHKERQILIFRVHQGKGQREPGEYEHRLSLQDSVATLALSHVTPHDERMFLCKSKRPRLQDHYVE
Excerpt: (§1) The following protocol was used: ForteBio Domain Mapping Protocol. ForteBio anti-human IgG Fc biosensors were used to immobilize various mouse MCAMhFc domains including full length mouse MCAMhFc protein on to biosensor surface. These sensors were dipped into either clone 15 or 17 MCAM specific antibody for detection of binding to these domains or full length protein. After loading these samples into a black 96 well plate, the Octet Red was programmed as follows: 60 seconds for baseline #1; 180 seconds for loading various domains; 60 seconds for baseline #2; 180 seconds for association of antibody to domain; and 240 seconds for dissociation of antibody from domain.

[2] = biological target: T2, Murine MCAM domain 1 and 2 (Ig1-2A) with human IgG Fc tag (mouse, UniProt Q8R2Y2 24-244, limits assumed); test: as above
T2 construct: domain: domain 1 and 2 (Ig1-2A); also called MCAM Fc domains 1 and 2; not shown: human IgG Fc tag
T2 sequence (looked up): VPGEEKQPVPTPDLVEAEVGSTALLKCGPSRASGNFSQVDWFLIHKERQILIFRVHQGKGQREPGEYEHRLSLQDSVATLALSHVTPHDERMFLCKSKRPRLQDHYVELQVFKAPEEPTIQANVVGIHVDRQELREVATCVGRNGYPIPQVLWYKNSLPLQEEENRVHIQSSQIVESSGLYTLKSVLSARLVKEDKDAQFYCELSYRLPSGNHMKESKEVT
Excerpt: as §1

[3] = biological target: T3, mouse MCAM (full length, on transfected CHO cells) (mouse, UniProt Q8R2Y2 24-648); test: flow cytometry on MCAM transfected cells mixed with CFSE-labelled untransfected cells
T3 construct: whole, on cells; also called murine MCAM; mouse MCAM transfected CHO cells
T3 sequence (looked up): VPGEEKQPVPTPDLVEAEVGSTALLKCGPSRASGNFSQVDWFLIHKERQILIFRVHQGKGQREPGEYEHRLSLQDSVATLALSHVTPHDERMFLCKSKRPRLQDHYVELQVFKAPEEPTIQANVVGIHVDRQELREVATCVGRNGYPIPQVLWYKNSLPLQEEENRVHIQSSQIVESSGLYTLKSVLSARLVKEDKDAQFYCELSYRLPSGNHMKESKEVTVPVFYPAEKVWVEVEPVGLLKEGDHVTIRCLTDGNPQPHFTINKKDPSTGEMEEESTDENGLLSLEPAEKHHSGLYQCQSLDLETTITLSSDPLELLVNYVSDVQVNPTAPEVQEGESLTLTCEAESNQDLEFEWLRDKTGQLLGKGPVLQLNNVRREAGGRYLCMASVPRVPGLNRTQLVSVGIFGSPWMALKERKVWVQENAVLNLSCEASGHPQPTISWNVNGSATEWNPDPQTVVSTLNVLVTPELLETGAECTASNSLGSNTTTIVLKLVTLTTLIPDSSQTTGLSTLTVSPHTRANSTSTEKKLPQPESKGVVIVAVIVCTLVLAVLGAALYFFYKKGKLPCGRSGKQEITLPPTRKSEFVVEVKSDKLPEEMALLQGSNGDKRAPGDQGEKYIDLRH
Method: MCAM-Fc was generated by fusing the extracellular domain of murine MCAM to human IgG and produced in CHO cells using standard techniques. Lou/M rats were immunized with 100 μg of MCAM-Fc protein in CFA (1:1 volume). Rats were boosted two times at two week intervals with MCAM-Fc protein in incomplete Freund's adjuvant (IFA) (1:1 volume). Hybridomas were generated from immunized rats using standard protocols and clones were selected by Clonepix. CHO cells were transfected with the full length murine MCAM gene and selected for stable expression using neomycin and standard techniques. Parental CHO cells (MCAM negative) were fluorescently labeled with carboxyfluorescein succinimidyl ester (CFSE) using standard techniques and mixed at a 1:1 ratio with unlabeled MCAM transfected CHO cells. Hybridoma supernatants were incubated with this mixture of cells for 30 minutes and binding of potential MCAM specific antibodies was detected with a fluorescently labeled anti-rat secondary antibody (Jackson Immuno) by flow cytometry.
(§2) Monoclonal antibodies against mouse MCAM were generated as described in Materials and Methods above. The specific binding between the monoclonal antibody and MCAM was confirmed by assessing the monoclonal antibody's ability to bind to cells transfected with either mouse or human MCAM. For this, untransfected cells were labeled with carboxyfluorescein succinimidyl ester (CFSE) and mixed with unlabeled MCAM transfected cells. Untransfected cells (in blue) could therefore be differentiated.

[4] = biological target: T4, human MCAM (on transfected cells) (human, UniProt P43121 24-646); test: flow cytometry on human MCAM transfected cells mixed with CFSE-labelled untransfected cells
T4 construct: Cells transfected with human MCAM; also called CD146; MUC18
T4 chain: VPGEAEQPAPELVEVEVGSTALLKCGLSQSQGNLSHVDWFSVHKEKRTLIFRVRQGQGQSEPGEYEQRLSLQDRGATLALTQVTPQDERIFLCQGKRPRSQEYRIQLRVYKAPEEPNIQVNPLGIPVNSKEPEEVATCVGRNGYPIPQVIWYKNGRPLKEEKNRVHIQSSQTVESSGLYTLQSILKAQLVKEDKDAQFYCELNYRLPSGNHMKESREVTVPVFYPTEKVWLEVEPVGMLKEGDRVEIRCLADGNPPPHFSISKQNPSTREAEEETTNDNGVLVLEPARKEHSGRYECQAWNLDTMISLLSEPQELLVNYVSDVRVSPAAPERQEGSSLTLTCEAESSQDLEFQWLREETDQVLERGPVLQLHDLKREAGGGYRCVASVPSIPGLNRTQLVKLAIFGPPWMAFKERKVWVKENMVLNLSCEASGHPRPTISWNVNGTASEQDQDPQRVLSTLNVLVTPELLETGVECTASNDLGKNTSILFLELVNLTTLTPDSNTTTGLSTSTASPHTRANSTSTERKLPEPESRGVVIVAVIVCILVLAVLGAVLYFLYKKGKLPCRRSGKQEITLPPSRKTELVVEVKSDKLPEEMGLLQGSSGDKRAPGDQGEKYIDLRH
Excerpt: as §2

Ig2 domain = biological target: T5, Ig2 domain (mouse, UniProt Q8R2Y2); test: ForteBio Octet Red, anti-human IgG Fc biosensor loaded with the Ig2 domain hFc protein, dipped into clone 15 or SP2 media
T5 construct: immunoglobulin domain 2 alone; also called Murine MCAM domain 2 (Ig2)
T5 sequence (Fc fusion chain, looked up): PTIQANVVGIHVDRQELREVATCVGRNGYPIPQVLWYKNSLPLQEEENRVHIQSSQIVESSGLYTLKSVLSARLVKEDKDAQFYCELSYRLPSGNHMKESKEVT
Excerpt: as §1
(§3) For FIG. 10A-B, clones 15 and 17 were tested against the following protein samples (all have human IgG Fc tag): […]

[5] = biological target: T6, murine MCAM-Fc (extracellular domain of murine MCAM fused to human IgG) (mouse, UniProt Q8R2Y2 24-563); test: ForteBio Octet Red, anti-human IgG Fc biosensor loaded with mouse MCAMhFc (5 ug/ml), dipped into clone 15 (5 ug/ml) or SP2 media
T6 construct: extracellular domain; Produced in CHO cells; also called mouse MCAM-Fc protein; full length mouse MCAMhFc protein; not shown: human IgG (Fc) part
T6 sequence (looked up): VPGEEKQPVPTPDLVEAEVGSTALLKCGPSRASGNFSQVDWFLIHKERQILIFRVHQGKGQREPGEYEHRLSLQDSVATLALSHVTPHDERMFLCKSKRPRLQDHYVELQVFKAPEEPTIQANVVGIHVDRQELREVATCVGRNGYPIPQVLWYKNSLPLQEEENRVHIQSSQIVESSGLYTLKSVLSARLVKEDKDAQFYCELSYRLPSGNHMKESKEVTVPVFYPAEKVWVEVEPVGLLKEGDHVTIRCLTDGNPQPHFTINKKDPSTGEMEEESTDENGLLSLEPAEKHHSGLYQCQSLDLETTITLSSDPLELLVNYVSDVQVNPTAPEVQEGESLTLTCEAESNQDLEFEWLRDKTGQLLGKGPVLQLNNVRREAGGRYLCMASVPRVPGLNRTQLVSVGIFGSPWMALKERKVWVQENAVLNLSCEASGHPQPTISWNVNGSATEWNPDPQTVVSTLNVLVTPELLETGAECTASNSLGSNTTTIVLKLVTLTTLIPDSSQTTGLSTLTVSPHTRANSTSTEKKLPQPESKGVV
Excerpt: as §1, §3

[6] = biological target: T7, Recombinant human laminin-α4 (R&D systems) (human, UniProt Q16363-2 826-1816); test: SPR (Biacore T200)
T7 construct: also called laminin 4A chain; laminin A4 (α4) chain
T7 sequence (looked up): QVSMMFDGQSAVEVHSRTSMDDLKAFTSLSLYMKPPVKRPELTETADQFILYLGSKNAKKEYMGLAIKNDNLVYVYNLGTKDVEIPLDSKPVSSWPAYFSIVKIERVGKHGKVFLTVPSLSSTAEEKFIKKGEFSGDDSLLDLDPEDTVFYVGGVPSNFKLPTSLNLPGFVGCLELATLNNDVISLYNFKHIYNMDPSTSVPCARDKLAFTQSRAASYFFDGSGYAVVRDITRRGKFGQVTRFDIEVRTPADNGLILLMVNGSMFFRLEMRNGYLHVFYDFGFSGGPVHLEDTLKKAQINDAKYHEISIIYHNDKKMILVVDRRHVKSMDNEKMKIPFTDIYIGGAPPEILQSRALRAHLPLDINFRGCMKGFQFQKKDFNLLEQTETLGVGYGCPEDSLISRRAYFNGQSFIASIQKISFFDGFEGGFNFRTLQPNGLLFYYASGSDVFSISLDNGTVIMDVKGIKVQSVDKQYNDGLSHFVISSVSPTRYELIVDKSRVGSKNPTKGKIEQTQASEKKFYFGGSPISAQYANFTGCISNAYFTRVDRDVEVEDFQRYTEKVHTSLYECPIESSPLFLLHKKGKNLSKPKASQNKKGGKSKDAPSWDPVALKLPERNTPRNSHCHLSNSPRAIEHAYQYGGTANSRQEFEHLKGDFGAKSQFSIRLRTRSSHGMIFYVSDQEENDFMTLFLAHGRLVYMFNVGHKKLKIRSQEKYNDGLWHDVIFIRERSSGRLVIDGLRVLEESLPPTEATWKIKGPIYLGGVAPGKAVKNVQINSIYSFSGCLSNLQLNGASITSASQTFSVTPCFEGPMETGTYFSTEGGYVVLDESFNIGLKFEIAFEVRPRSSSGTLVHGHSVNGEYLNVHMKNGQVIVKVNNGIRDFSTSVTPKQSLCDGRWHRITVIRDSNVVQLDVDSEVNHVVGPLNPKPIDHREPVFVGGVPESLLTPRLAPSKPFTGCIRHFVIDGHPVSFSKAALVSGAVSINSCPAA

[7] = biological target: T8, Recombinant human laminin 511 (Biolamina) (human, UniProt O15230 36-3695; P07942 22-1786; P11047 34-1609); test: SPR (Biacore T200)
T8 construct: Trimer α5β1γ1, bought; negative control

- binding result [1]: no binding (tested: 5 ug/ml)
- binding result [2]: binds
- binding result [3]: binds
- binding result [4]: no binding
- binding result (Ig2 domain): no binding (tested: 5 ug/ml)
- binding result [5]: binds
B1: clone 15 monoclonal antibody (rat anti-MCAM) (antibody, V domains shown)
VH: EVRLVESGGGLVQPGKSMKLSCVASGFKFSNYYMSWVRQAPAKGLEWVASISDGGGDTFCRDLVKGRFTISRDNAKSTLYLQMDSLRPEDTATYYCARRGAAMGGVMDAWGQGTSVTVSS
VL: DIVMTQSPSSLAVSAGETVSIHCKSSQSLLYSGTQKNYLAWFQQKPGQSPKLLIFWASTRQSGVPDRFIGRGSGTDFTLTISGVQAEDLAIYYCQQYYDTLTDTFGAGTKLELKR
notes: Rat monoclonal from a hybridoma; also called anti-MCAM antibody (clone 15)

- binding result [6]: no binding (tested: 5-175 nM)
- binding result [7]: no binding (tested: 5-175 nM)
B2: MCAM Fc domain 1 alone (Example 9) (Fc fusion)
chain: PRVAGVPGEAEQPAPELVEVEVGSTALLKCGLSQSQGNLSHVDWFSVHKEKRTLIFRVRQGQGQSEPGEYEQRLSLQDRGATLALTQVTPQDERIFLCQGKRPRSQEYRIQ
notes: not shown: Fc tag; not described
